Laboratory results from EP4748861A1 (Duality Biologics (Suzhou) Co., Ltd., dated 2025).
Each block holds one binder with its values, some of them ahead of it.

How the values were obtained:
[1] = molecular target: T1, human HER3 (His-Avi Tag, Kactus Biosystem, HER-HM403) (human, UniProt P21860 20-643); assay: SPR, Biacore T200; antibody captured on ProA chip, antigen as analyte; 1:1 Langmuir fit
T1 construct: Bought soluble protein used as SPR analyte; also called hHER3; not shown: His-Avi tag

[2] = molecular target: T2, human EGFR (His-Avi Tag, Kactus Biosystem, EGF-HM401) (human, UniProt P00533 25-645); assay: as above
T2 construct: Bought soluble protein used as SPR analyte; also called hEGFR; not shown: His-Avi tag

[3] = molecular target: T3, monkey HER3 (rhesus HER3, C-His Tag, Kactus Biosystem, HER-CM403) (rhesus monkey, UniProt H9ERZ8 20-643); assay: as above
T3 construct: Bought soluble protein used as SPR analyte; not shown: C-terminal His tag

[4] = molecular target: T4, monkey EGFR (rhesus EGFR, C-His Tag, Kactus Biosystem, EGF-CM101) (rhesus monkey, UniProt P55245 25-645, limits assumed); assay: as above
T4 construct: Bought soluble protein used as SPR analyte; not shown: C-terminal His tag

[5] = molecular target: T2, human EGFR (His-Avi Tag, Kactus …); assay: SPR, Biacore T200; ratio of affinities
human EGFR on cells = molecular target: T5, human EGFR on cells (human, UniProt P00533 25-1210); assay: flow cytometry on EGFR-CT26 cells, PE anti-human IgG Fc
T5 construct: whole, on cells; the cell line is named under assay; also called EGFR-CT26; EGFR/CT26 (EGFR+++, HER3-)

human HER3 on cells = molecular target: T6, human HER3 on cells (human, UniProt P21860 20-1342); assay: flow cytometry on HER3-CT26 cells, PE anti-human IgG Fc
T6 construct: whole, on cells; Used as target for cells that carry HER3 alone (HER3-CT26) and for the anti-HER3 mAb on tumor lines that carry both receptors; the cell line is named under assay; also called HER3-CT26; HER3/CT26 (EGFR-, HER3+++)

T3 sequence (H9ERZ8 entry or part of it): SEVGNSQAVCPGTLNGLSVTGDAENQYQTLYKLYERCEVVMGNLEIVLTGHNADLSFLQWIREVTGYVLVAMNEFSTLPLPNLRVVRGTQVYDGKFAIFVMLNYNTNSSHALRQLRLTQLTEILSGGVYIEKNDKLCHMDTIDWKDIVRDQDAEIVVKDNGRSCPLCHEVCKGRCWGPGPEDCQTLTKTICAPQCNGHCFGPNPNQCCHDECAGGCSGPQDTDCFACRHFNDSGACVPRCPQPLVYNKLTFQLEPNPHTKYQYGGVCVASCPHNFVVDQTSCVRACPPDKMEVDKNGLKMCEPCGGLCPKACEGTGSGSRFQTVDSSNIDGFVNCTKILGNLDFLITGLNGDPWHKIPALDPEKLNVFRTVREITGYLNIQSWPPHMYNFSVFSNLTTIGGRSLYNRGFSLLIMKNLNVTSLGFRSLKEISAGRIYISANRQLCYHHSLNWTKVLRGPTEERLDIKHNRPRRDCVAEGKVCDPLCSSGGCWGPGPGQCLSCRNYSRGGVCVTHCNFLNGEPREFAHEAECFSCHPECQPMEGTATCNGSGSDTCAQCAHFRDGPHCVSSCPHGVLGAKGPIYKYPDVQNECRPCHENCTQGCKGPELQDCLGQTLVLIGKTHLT

Kd [1]: 0.56 nM
koff [1]: 0.00018 s⁻¹
kon [1]: 322000 M⁻¹ s⁻¹
Kd [2]: 9.29 nM
koff [2]: 0.00055 s⁻¹
kon [2]: 59200 M⁻¹ s⁻¹
Kd [3]: 0.563 nM
koff [3]: 0.000157 s⁻¹
kon [3]: 278000 M⁻¹ s⁻¹
Kd [4]: 11.3 nM
koff [4]: 0.000534 s⁻¹
kon [4]: 47200 M⁻¹ s⁻¹
fold weaker affinity than its affinity for HER3 [5]: ~16 fold
fold weaker affinity than the parent EGFR antibody [5]: ~3 fold
EC50 (human EGFR on cells): 1.9 nM
EC50 (human HER3 on cells): 1.96 nM
B1: DBXT001-01 (bispecific antibody, human IgG1, kappa)
heavy 1: not shown
light 1: not shown
heavy 2: not shown
light 2: DIQMTQSPSSLSASVGDRVTITCRASQDISNYLNWYQQKPGKAPKLLIYYTSILHSGVPSRFSGSGSGTDYTFTISSLQPEDIATYFCQQGDTLPPTFGGGTKLEIKSSASTKGPSVFPLAPSSKSTSGGTAALGCLVKDYFPEPVTVSWNSGALTSGVHTFPAVLQSSGLYSLSSVVTVPSSSLGTQTYICNVNHKPSNTKVDKKVEPKSC
notes: H1/L1 are the EGFR arm, H2/L2 the HER3 arm; one arm for each antigen; also called BsAb DBXT001-01; EGFR-HER3 BsAb

Kd [1]: 0.493 nM
koff [1]: 0.000379 s⁻¹
kon [1]: 768000 M⁻¹ s⁻¹
EC50 (human HER3 on cells): 0.28 nM
B2: anti-HER3 mAb (antibody, human IgG1, kappa, V domains shown)
VH: QVQLQESGPGLVKPSETLSLTCTVSGYSITSAYYWNWIRQPFGKGLEWMGYISYDGRNNFNPSLKNRVTISRDTSKNQFSLKLSSVTAADTAVYYCARDGDYDYFDYWGQGTTVTVSS
VL: DIQMTQSPSSLSASVGDRVTITCRASQDISNYLNWYQQKPGKAPKLLIYYTSILHSGVPSRFSGSGSGTDYTFTISSLQPEDIATYFCQQGDTLPPTFGGGTKLEIKR
notes: expressed in CHO cells; also called HER3 parent mAb; parent HER3 antibody
